Measured values reported in the supplement of paper PMC10724198.
± gives the standard deviation of the averaged measurements.

Tested on: Saccharomyces cerevisiae
Assay: protein stability index of tFT-peptide fusion (C-terminal peptide) (PSI (0-1 scale)); higher = more stable (slower turnover)
Conditions: temperature: 30 C
Method: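 MPS profiling in S. cerevisiae of the yeast C-terminome library: the last 12 aa of each annotated ORF are fused to the C-terminus of a sfGFP-mCherry timer, after a GGGS linker. Cells are FACS-sorted into 8 mCherry/sfGFP bins and deep-sequenced. PSI runs from 0 (unstable) to 1 (stable); wild type and das1Δ backgrounds, two technical replicates each.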

[1] = genetic background: das1 deletion

| Sequence | protein stability index [1] | protein stability index (genetic background: wild type) |
| --- | --- | --- |
| IDFLVEEATLNE [YAP3 C-terminal 12 aa] | 0.70065 ± 9.1e-05 | 0.673 ± 0.032 |
| IEAATQAFLDSQ [WIP1 C-terminal 12 aa] | 0.698 ± 0.013 | 0.715 ± 0.051 |
| IERLFKEEEYYS [TCD1 C-terminal 12 aa] | 0.70198 ± 0.00056 | 0.703 ± 0.011 |
| IGIGFGVGIIRE [BUD9 C-terminal 12 aa] | 0.698 ± 0.052 | 0.686 ± 0.036 |
| IIQDNISPRLVV [RRP46 C-terminal 12 aa] | 0.661 ± 0.034 | 0.665 ± 0.017 |
| IIQKETQSAGDK [PZF1 C-terminal 12 aa] | 0.661 ± 0.013 | 0.678 ± 0.024 |
| IKGKFYVKILGN [YGR115C C-terminal 12 aa] | 0.635 ± 0.036 | 0.648 ± 0.012 |
| IKIFSERCDGKV [JJJ2 C-terminal 12 aa] | 0.7066 ± 0.002 | 0.683 ± 0.0069 |
| IKLLKTHNRMSL [YNL277W-A C-terminal 12 aa] | 0.6846 ± 0.0031 | 0.696 ± 0.036 |
| IKNRLNGLKYRL [YML020W C-terminal 12 aa] | 0.751 ± 0.0083 | 0.6784 ± 0.0056 |
| ILAENEIEVSRG [FET5 C-terminal 12 aa] | 0.7042 ± 0.00013 | 0.705 ± 0.0081 |
| ILERRLNEDHDC [KXD1 C-terminal 12 aa] | 0.696 ± 0.025 | 0.6885 ± 0.0056 |
| ILILFTSINQRG [YOR366W C-terminal 12 aa] | 0.589 ± 0.037 | 0.605 ± 0.039 |
| ILMNEFAFNPKV [LEU3 C-terminal 12 aa] | 0.728 ± 0.027 | 0.708 ± 0.044 |
| ILTQGGHIIKKK [MNL2 C-terminal 12 aa] | 0.715 ± 0.017 | 0.6938 ± 0.0012 |
| IMDKLRAMKNRM [GLO2 C-terminal 12 aa] | 0.689 ± 0.053 | 0.663 ± 0.032 |
| IMSTASAQFVGN [YIR018C-A C-terminal 12 aa] | 0.687 ± 0.011 | 0.664 ± 0.0089 |
| INKTLAWMDEGL [ERG26 C-terminal 12 aa] | 0.694 ± 0.013 | 0.728 ± 0.055 |
| INPMPANFAELS [FAL1 C-terminal 12 aa] | 0.721 ± 0.017 | 0.689 ± 0.049 |
| IPSIGKPKTIKI [BUD17 C-terminal 12 aa] | 0.672 ± 0.015 | 0.7017 ± 0.0033 |
| IPTSFFFFNSIV [YKL123W C-terminal 12 aa] | 0.734 ± 0.034 | 0.305 ± 0.0033 |

| Sequence | protein stability index [1] | protein stability index (genetic background: wild type) |
| --- | --- | --- |
| IQFFSQCTSCTV [YLR286W-A C-terminal 12 aa] | 0.507 ± 0.0085 | 0.5256 ± 0.004 |
| IQYYEEILRRGL [SPP1 C-terminal 12 aa] | 0.683 ± 0.024 | 0.677 ± 0.027 |
| IRCVFMFRTNAK [YLR296W C-terminal 12 aa] | 0.578 ± 0.03 | 0.595 ± 0.018 |
| IRDAKFCDKHED [BOR1 C-terminal 12 aa] | 0.6971 ± 0.0014 | 0.671 ± 0.035 |
| IRLKRRDFMKNL [RRT12 C-terminal 12 aa] | 0.689 ± 0.0069 | 0.382 ± 0.0049 |
| ISKKYYSRYDKK [OM14 C-terminal 12 aa] | 0.683 ± 0.037 | 0.616 ± 0.025 |
| ISTLKAIYNKMD [PEX9 C-terminal 12 aa] | 0.69065 ± 0.0004 | 0.672 ± 0.009 |
| ISWLEKMKKFFH [MAM33 C-terminal 12 aa] | 0.7163 ± 0.0048 | 0.693 ± 0.009 |
| ITLAELDVGDSE [CAF130 C-terminal 12 aa] | 0.703 ± 0.03 | 0.7119 ± 0.0027 |
| ITNATFREIDDA [SEC12 C-terminal 12 aa] | 0.692 ± 0.0098 | 0.671 ± 0.03 |
| ITNFFRVLVRLV [YER067C-A C-terminal 12 aa] | 0.526 ± 0.024 | 0.155 ± 0.0039 |
| IVCGDGSIHWFQ [FAU1 C-terminal 12 aa] | 0.735 ± 0.0094 | 0.769 ± 0.041 |
| IVFTSVGAFNIL [YMR172C-A C-terminal 12 aa] | 0.717 ± 0.016 | 0.7349 ± 0.0029 |
| IVNIKILRRNSR [LDB16 C-terminal 12 aa] | 0.796 ± 0.014 | 0.7813 ± 0.003 |
| IVSFLSDETKSP [ECM18 C-terminal 12 aa] | 0.7282 ± 0.0009 | 0.714 ± 0.011 |
| IWLVYKLYCFIF [CST26 C-terminal 12 aa] | 0.3724 ± 0.0025 | 0.3155 ± 0.0014 |
| IYVCGRLTNDRK [YIL171W-A C-terminal 12 aa] | 0.6871 ± 0.0066 | 0.65 ± 0.015 |
| KAGEMVLKSLRR [SCP160 C-terminal 12 aa] | 0.67 ± 0.028 | 0.783 ± 0.017 |
| KAKSRREGTTRT [STU2 C-terminal 12 aa] | 0.7121 ± 0.0033 | 0.694 ± 0.013 |
| KCEEVNDGLRWK [EHD3 C-terminal 12 aa] | 0.6964 ± 0.0049 | 0.711 ± 0.1 |
